Data on two molecules can be found in paper doi:10.1101/757856, “Biochemical and structural analysis reveals the Neurofibromin (NF1) protein forms a high-affinity dimer” (bioRxiv, 2019).

In assay [1] the target is T1, Neurofibromin EF fragment (1821-2818, purified) (human, UniProt P21359-2 1821-2818).
T1 construct: Neurofibromin, human NF1 isoform 2 (NM_000267.3), residues 1821-2818 (domains E and F); expected molar mass 111 kDa; also called EF domain; C-terminal EF domain; source: baculovirus-based insect cell system, purified; not shown: His6-MBP, N-terminal, cleaved
T1 sequence (looked up): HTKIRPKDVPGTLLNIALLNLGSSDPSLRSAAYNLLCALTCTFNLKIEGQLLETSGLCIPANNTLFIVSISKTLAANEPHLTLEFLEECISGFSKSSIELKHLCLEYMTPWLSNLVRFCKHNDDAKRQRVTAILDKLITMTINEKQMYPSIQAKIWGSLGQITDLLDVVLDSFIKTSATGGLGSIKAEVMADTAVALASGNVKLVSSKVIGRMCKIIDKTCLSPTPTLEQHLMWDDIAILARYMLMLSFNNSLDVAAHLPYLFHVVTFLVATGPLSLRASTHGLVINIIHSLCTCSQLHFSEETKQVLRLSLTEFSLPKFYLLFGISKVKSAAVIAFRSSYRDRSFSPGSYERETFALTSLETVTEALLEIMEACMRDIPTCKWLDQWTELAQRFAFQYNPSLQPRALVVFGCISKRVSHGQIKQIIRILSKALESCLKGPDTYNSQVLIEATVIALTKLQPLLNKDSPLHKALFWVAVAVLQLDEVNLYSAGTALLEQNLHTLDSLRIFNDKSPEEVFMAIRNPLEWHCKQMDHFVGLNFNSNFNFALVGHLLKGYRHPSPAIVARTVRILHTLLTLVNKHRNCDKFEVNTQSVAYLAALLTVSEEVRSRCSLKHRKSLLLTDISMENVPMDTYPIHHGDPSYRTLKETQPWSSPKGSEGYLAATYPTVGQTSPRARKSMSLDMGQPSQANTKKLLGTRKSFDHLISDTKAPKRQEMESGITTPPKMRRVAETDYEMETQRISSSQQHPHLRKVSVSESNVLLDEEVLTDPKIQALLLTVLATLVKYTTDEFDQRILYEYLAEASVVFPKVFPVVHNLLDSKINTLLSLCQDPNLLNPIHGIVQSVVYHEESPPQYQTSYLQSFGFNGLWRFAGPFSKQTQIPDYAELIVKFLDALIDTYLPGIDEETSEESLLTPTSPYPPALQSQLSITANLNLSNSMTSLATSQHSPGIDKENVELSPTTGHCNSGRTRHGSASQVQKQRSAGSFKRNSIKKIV
The experiment in a line: SEC; equimolar mixtures of purified NF1 fragments run on SEC; fractions analysed by SDS-PAGE for co-elution. Conditions: both partners purified.

The target of assay [2] is T2, Neurofibromin DEF fragment (1541-2818, purified) (human, UniProt P21359-2 1541-2818).
T2 construct: expected molar mass 144 kDa; also called DEF domain; carboxy-terminal DEF; source: baculovirus-based insect cell system, purified; not shown: His6-MBP, N-terminal, cleaved
The assay is described as above. Conditions: both partners purified.

B1: Neurofibromin C*D domain (1085-1816) (domain or fragment, human, UniProt P21359-2 1085-1816, looked up)
chain: LQPEEGDGVELMEAKSQLFLKYFTLFMNLLNDCSEVEDESAQTGGRKRGMSRRLASLRHCTVLAMSNLLNANVDSGLMHSIGLGYHKDLQTRATFMEVLTKILQQGTEFDTLAETVLADRFERLVELVTMMGDQGELPIAMALANVVPCSQWDELARVLVTLFDSRHLLYQLLWNMFSKEVELADSMQTLFRGNSLASKIMTFCFKVYGATYLQKLLDPLLRIVITSSDWQHVSFEVDPTRLEPSESLEENQRNLLQMTEKFFHAIISSSSEFPPQLRSVCHCLYQVVSQRFPQNSIGAVGSAMFLRFINPAIVSPYEAGILDKKPPPRIERGLKLMSKILQSIANHVLFTKEEHMRPFNDFVKSNFDAARRFFLDIASDCPTSDAVNHSLSFISDGNVLALHRLLWNNQEKIGQYLSSNRDHKAVGRRPFDKMATLLAYLGPPEHKPVADTHWSSLNLTSSKFEEFMTRHQVHEKEEFKALKTLSIFYQAGTSKAGNPIFYYVARRFKTGQINGDLLIYHVLLTLKPYYAKPYEIVVDLTHTGPSNRFKTDFLSKWFVVFPGFAYDNVSAVYIYNCNSWVREYTKYHERLLTGLKGSKRLVFIDCPGKLAEHIEHEQQKLPAATLALEEDLKVFHNALKLAHKDTKVSIKVGSTAVQVTSAERTKVLGQSVFLNDIYYASEIEEICLVDENQFTLTIANQGTPLTFMHQECEAIVQSIIHIRTRWELSQPD
notes: C* constructs have an altered start site within the C domain; source: purified; not shown: His6-MBP, N-terminal, cleaved
Consider B1, for which the binding result in assay [1] is “binds”.

B2: Neurofibromin C* domain (1085-1530) (domain or fragment, human, UniProt P21359-2 1085-1530, looked up)
chain: LQPEEGDGVELMEAKSQLFLKYFTLFMNLLNDCSEVEDESAQTGGRKRGMSRRLASLRHCTVLAMSNLLNANVDSGLMHSIGLGYHKDLQTRATFMEVLTKILQQGTEFDTLAETVLADRFERLVELVTMMGDQGELPIAMALANVVPCSQWDELARVLVTLFDSRHLLYQLLWNMFSKEVELADSMQTLFRGNSLASKIMTFCFKVYGATYLQKLLDPLLRIVITSSDWQHVSFEVDPTRLEPSESLEENQRNLLQMTEKFFHAIISSSSEFPPQLRSVCHCLYQVVSQRFPQNSIGAVGSAMFLRFINPAIVSPYEAGILDKKPPPRIERGLKLMSKILQSIANHVLFTKEEHMRPFNDFVKSNFDAARRFFLDIASDCPTSDAVNHSLSFISDGNVLALHRLLWNNQEKIGQYLSSNRDHKAVGRRPFDKMATLLAYLGPPEH
notes: source: purified; not shown: His6-MBP, N-terminal, cleaved
Regarding B2, the binding result in assay [1] and in assay [2] was “binds” in each case.
